Test results as given in US20210277090A1.

Target: trypsin
Test: cell-based or functional assay

specific activity of the sample (units of trypsin inhibition): 5000 U/mg
Substance: recombinant ulinastatin polypeptide (T17); mature human ulinastatin with S10A mutation, N-linked glycan at N45 and O-linked glycan at T17 (from UniProt P02760 206-352)
